Assay results published in the supplement of paper PMC9170038.

System: MS2 coat protein
Assay: apparent KD of MS2 coat protein; designed switch direction (-1 OFF switch, 1 ON switch): 1; higher = weaker reporter binding
Outline: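 SNAP-549-labelled MS2 coat protein was titrated, doubling from 0.7 or 1.5 nM to 3 µM, over designed RNA switches transcribed on Illumina chips by stalled E. coli RNA polymerase. Runs were done without input, with 200 uM small-molecule ligand, or with an oligonucleotide input. Apparent KD is the per-design median over clusters of curve-fitted normalised fluorescence.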

[1] = input ligand: microRNA oligo, concentration not stated
[2] = Eterna round: R95, input ligand: FMN 200 uM
[3] = Eterna round: R95, input ligand: microRNA oligo, concentration not stated
[4] = Eterna round: R95, input ligand: none

Row | Sequence | apparent KD of MS2 coat protein (input ligand: FMN 200 uM) | apparent KD of MS2 coat protein [1] | apparent KD of MS2 coat protein (input ligand: none) | apparent KD of MS2 coat protein [2] | apparent KD of MS2 coat protein [3] | apparent KD of MS2 coat protein [4]
1 | ACAUGAAAUUCAGGAUAUUUUGUACCUACAUGUGACAUGAGGAUCACCCAUGUGGUAAGUAUAAGAGAGAAGGGAAAGAUAUGU [Equivalence 5 - Jieux - Same State NG 2] (Eterna round: R96, puzzle: Same State NG 2) | 29.1 nM | 29.9 nM | 38.5 nM | – | – | –
2 | ACAUGAGAGAUAGGAUAUCUUGUACCUACAUGUGACAUGAGGAUCACCCAUGUGGUAAGUAUGAGGGAGAAGGAUCAGAUAUGU [Equivalence 42 - Jieux - Same State NG 2] (Eterna round: R96, puzzle: Same State NG 2) | 29.6 nM | 26.4 nM | 45.2 nM | – | – | –
3 | ACAUGAGAGUGAGGAUAUAUUGUACCUACAUGUGACAUGAGGAUCACCCAUGUGGUAAGUAUGACAUAGAAGGCACAGAUAUGU [Equivalance 80 - Jieux - Same State NG 2] (Eterna round: R96, puzzle: Same State NG 2) | 35.6 nM | 45.2 nM | 70.9 nM | – | – | –
4 | ACAUGAGAGUGAGGAUAUCAUGUACCUACAUGUGACAUGAGGAUCACCCAUGUGGUAAGUAUGACUGAGAAGGCACAGAUAUGU [Equivalance 90 - Jieux - Same State NG 2] (Eterna round: R96, puzzle: Same State NG 2) | 70.3 nM | 267 nM | 889 nM | – | – | –
5 | ACAUGAGGGUGAGGAUAUUGGAACUCACCUGACAUGAGGAUCACCCAUGUUCAAUGAGGAUCACCCAAGAAGGCACGUUGUGGA [Same State NG2 S3] (Eterna round: R96, puzzle: Same State NG 2) | 29.2 nM | 24 nM | 36.2 nM | – | – | –
6 | ACCCAAAAUACAUGGGAACAAGCUUUUUAACAUGAGGAUCACCCAUGUACUCGUCUUAUAAGCAGUCGAAAGACUGC [hsa-mir-208a sensor: 113] (Eterna round: R96, puzzle: Sensor for hsa-mir-208a) | 563 nM | 14.6 nM | 518 nM | – | – | –
7 | ACCCGCGGGCCACAUGAGGAUCACCCAUGUGACCGGUGAUCCAAGGAUAUACGUGUCAUUGACGCGUAGAAGGUGGCCAAAACA [Ersooned] (Eterna round: R96, puzzle: Same State NG 3) | 49.2 nM | 22.7 nM | 28.8 nM | – | – | –
8 | ACGCGGGUAUCACAGGAUAUACUCAUAACUACAUGAGGAUCACCCAUGUGGCGGAAUUCCGGUGCGUAGAAGGGUGAUGGACCGC [Artece] (puzzle: Same State 2) | – | – | – | 19.3 nM | 28.5 nM | 26.9 nM
9 | ACGUCGAGAUCACAGGAUAUACUCACAUCUACAUGAGGAUCACCCAUGUAGCGGUAUUCCGGUGCGUAGAAGGGUGAUCGACGAC [Same State 2 - Mod of Artece v.5] (puzzle: Same State 2) | – | – | – | 14.6 nM | 9.7 nM | 11.9 nM
10 | ACGUGGCUGCCGCAGGAUAUACCCUGUUCCACAUGAGGAUCACCCAUGUUUACGAACUAUGAGAGGUAGAAGGGUGGAUGUCAUU [Beenvean] (Eterna round: R96, puzzle: Same State 2) | 12.2 nM | 18.9 nM | 30.7 nM | – | – | –
11 | ACGUGGCUGCCGCAGGAUAUACCCUGUUCCACAUGAGGAUCACCCAUGUUUACGAACUAUGAGAGGUAGAAGGGUGGAUGUCAUU [Beenvean] (puzzle: Same State 2) | – | – | – | – | 23.7 nM | –
12 | ACUAUUUAUGCAGGAUAUGAUUAACAUGAGGAUCACCCAUGUGGUGUUGUGAGUAAGGAGAGUGAUCAGAAGGGCAUUUUUUUU [JMF's solution 75] (Eterna round: R96, puzzle: Same State NG 2) | 518 nM | 297 nM | 359 nM | – | – | –
